Reference: US20180155451A1 (published 2018)
Residue numbers refer to the chain shown, from its start.

What was measured:
[1] = target: T1, FcγRIa extracellular domain with C-terminal His tag (human, UniProt P12314 16-292); experiment: SPR (Biacore), antibody captured on chip, soluble FcgR as analyte; experiment 1
T1 construct: extracellular domain; also called FcgRI; FcgRIa; not shown: His tag at the C terminus
Experimental: (§1) Antibodies of interest were analyzed for the interaction to FcgR according to the method described in Reference Example 8.
(§2) Analysis of interaction between obj ective antibody and the FcγR was carried out using Biacore T100 (GE Healthcare), Biacore T200, Biacore A100, and Biacore 4000. HBS-EP+ (GE Healthcare) was used as the running buffer, and the measurement temperature was set to 25° C. Chips produced by immobilizing the antigen peptide by the amine coupling method to a Series S sensor Chip CM5 (GE Healthcare), chips produced by allowing preliminarily biotinylated antigen peptides to interact with and immobilize onto a Series S Sensor Chip SA (certified) (GE Healthcare), chips produced by immobilizing Protein L (ACTIGEN, BioVision) to Series S Sencor Chip CM5 (GE Healthcare), or chips produced by immobilizing Protein A/G (Thermo Scientific) to Series S Sencor Chip CM5 (GE Healthcare) were used. Antibodies of interest were captured onto these chips, and allowed to interact to each FcγR diluted with running buffer. To regenerate and repeatedly use the chip, the antibodies captured onto the chip were washed off by reacting 10 mM glycine-HCl, pH 1.5.

[2] = target: T2, FcγRIIa R type extracellular domain with C-terminal His tag (human, UniProt P12318 34-217); experiment: as above
T2 construct: extracellular domain; also called FcgRIIa R; FcgRIIaR; not shown: His tag at the C terminus
T2 sequence (looked up): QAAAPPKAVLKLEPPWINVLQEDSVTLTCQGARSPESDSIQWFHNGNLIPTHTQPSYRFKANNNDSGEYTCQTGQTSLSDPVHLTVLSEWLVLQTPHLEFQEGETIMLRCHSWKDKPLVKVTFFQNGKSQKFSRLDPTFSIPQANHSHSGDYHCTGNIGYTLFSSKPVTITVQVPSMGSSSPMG
Experimental: as §1, §2

[3] = target: T3, FcγRIIa H type extracellular domain with C-terminal His tag (human, UniProt P12318 34-217); experiment: as above
T3 construct: extracellular domain; also called FcgRIIa H; FcgRIIaH; not shown: His tag at the C terminus
T3 sequence (looked up): T2 sequence (looked up) with R134H
Experimental: as §1, §2

[4] = target: T4, FcγRIIb extracellular domain with C-terminal His tag (human, UniProt P31994 43-217); experiment: as above
T4 construct: extracellular domain; also called FcgRIIb; 2b; not shown: His tag at the C terminus
T4 sequence (looked up): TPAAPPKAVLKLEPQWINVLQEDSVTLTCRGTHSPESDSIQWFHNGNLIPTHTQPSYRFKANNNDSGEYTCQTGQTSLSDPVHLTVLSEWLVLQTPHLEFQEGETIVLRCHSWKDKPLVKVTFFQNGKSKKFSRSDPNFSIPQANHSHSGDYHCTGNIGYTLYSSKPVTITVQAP
Experimental: as §1, §2

[5] = target: T5, FcγRIIIa F type extracellular domain with C-terminal His tag (human, UniProt P08637 17-208); experiment: as above
T5 construct: extracellular domain; also called FcgRIIIa F; FcgRIIIaF; not shown: His tag at the C terminus
Experimental: as §1, §2

[6] = target: T6, FcγRIIIa V type extracellular domain with C-terminal His tag (human, UniProt P08637 17-208); experiment: as above
T6 construct: extracellular domain; also called FcgRIIIa V; FcgRIIIaV; not shown: His tag at the C terminus
Experimental: as §1, §2

[7] = target: T1, FcγRIa extracellular domain with …; experiment: SPR (Biacore), antibody captured on chip, soluble FcgR as analyte; experiment 1 (second row of this antibody)
Experimental: as §1, §2

[8] = target: T2, FcγRIIa R type extracellular domain …; experiment: as above
Experimental: as §1, §2

[9] = target: T3, FcγRIIa H type extracellular domain …; experiment: as above
Experimental: as §1, §2

[10] = target: T4, FcγRIIb extracellular domain with …; experiment: as above
Experimental: as §1, §2

[11] = target: T5, FcγRIIIa F type extracellular domain …; experiment: as above
Experimental: as §1, §2

[12] = target: T6, FcγRIIIa V type extracellular domain …; experiment: as above
Experimental: as §1, §2

T1 sequence (P12314 16-292): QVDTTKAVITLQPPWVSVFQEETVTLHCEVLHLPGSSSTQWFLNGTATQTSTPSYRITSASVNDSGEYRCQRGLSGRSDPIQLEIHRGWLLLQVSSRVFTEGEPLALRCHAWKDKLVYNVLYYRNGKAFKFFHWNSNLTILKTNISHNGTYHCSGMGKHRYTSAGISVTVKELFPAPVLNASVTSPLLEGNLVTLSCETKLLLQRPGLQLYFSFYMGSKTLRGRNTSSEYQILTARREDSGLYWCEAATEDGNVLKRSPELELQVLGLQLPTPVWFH
T6 sequence (P08637 17-208 F176V): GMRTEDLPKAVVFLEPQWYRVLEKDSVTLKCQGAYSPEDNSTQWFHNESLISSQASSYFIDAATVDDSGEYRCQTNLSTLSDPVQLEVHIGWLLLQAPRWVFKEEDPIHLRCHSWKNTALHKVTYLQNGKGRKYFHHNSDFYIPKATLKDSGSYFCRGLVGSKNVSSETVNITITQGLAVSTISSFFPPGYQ
T5 sequence (P08637 17-208): as the sequence (P08637 17-208 F176V) above, with V160F counted along it

Kd [1]: 0.12 nM | Kd [2]: 250 nM | Kd [3]: 85 nM | Kd [4]: 1500 nM | Kd [5]: 4.8 nM | Kd [6]: 1.4 nM | Kd [7]: 0.082 nM | Kd [8]: 260 nM | Kd [9]: 85 nM | Kd [10]: 1500 nM | Kd [11]: 3.9 nM | Kd [12]: 1.2 nM
B1: H240-FA030/H240-FB059/L73-k0 (antibody, human IgG1, kappa)
heavy 1: QDQLVQSGAEVKKPGASVKVSCKASGFNIKDTYIQWVRQAPGQGLEWMGRIDPLRKQTKYREKFEGRVTITADTSTNTAYMELSSLRSEDTAVYYCVRSGREFDYWGQGTLVTVSSASTKGPSVFPLAPSSKSTSGGTAALGCLVKDYFPEPVTVSWNSGALTSGVHTFPAVLQSSGLYSLSSVVTVPSSSLGTKTYTCNVNHKPSNTKVDKKVEPKSCDKTHTCPPCPAPEYYWGPSVFLFPPKPKDTLMISRTPEVTCVVVDVSDEEPKVKFNWYVDGVEVHNAKTKPREEQYNATYRVVSVLTVLHQDWLNGKEYKCKVSNKALPAPIEKTISKAKGQPREPQVYTLPPSRKEMTKNQVSLTCLVKGFYPSDIAVEWESNGQPENNYKTTPPVLDSDGSFFLYSKLTVDKSRWQQGNVFSCSVMHEALHNRYTQKSLSLSP
heavy 2: QDQLVQSGAEVKKPGASVKVSCKASGFNIKDTYIQWVRQAPGQGLEWMGRIDPLRKQTKYREKFEGRVTITADTSTNTAYMELSSLRSEDTAVYYCVRSGREFDYWGQGTLVTVSSASTKGPSVFPLAPSSKSTSGETAALGCLVEDYFPEPVTVSWNSGALTSGVHTFPAVLQSSGLYSLSSVVTVPSSSLGTQTYICNVNHKPSNTKVDKKVEPKSCDKTHTCPPCPAPELLGGPSVFLFPPKPKDTLMISRTPEVTCVVVDVSHEEPEVQFNWYVDGVEVHNAETKPREEQYNSTYRVVSVLTVLHQDWLNGKEYKCKVSNDALPMPIEETISKAKGQPREPQVYTLPPSREEMTKNQVSLTCLVKGFYPSDIAVEWESNGQPENNYKTTPPVLDSDGSFFLYSKLTVDKSRWQQGNVFSCSVMHEALHNHYTQESLSLSP
light: DIQMTQSPSSLSASVGDRVTITCRASQDIHKYIAWYQQKPGQAPRLLIQYTSTLQPGVPSRFSGSGSGTDYTFTISSLQPEDIATYYCLQYEQLRTFGGGTKVEIKRTVAAPSVFIFPPSDEQLKSGTASVVCLLNNFYPREAKVQWKVDNALQSGNSQESVTEQDSKDSTYSLSSTLTLSKADYEKHKVYACEVTHQGLSSPVTKSFNRGEC
notes: Heterodimerized anti-EREG IgG1 antibody; A chain altered from H240-AK072, B chain altered from H240-BH076
